The results in this text go back to patent publication US20220236279A1 (LUXEMBOURG INSTITUTE OF HEALTH LIH, published 2022).

The labels stand for the following.
B1: Cy-5-labelled LIH383 (peptide)
peptide: FGGFMRRK
modifications: also: Cy5 label, site not given here
notes: also called LIH383-Cy5; fluorescently labelled LIH383
B2: delta-type opioid receptor (DOR) (receptor, UniProt P41143 1-372, looked up)
chain: MEPAPSAGAELQPPLFANASDAYPSACPSAGANASGPPGARSASSLALAIAITALYSAVCAVGLLGNVLVMFGIVRYTKMKTATNIYIFNLALADALATSTLPFQSAKYLMETWPFGELLCKAVLSIDYYNMFTSIFTLTMMSVDRYIAVCHPVKALDFRTPAKAKLINICIWVLASGVGVPIMVMAVTRPRDGAVVCMLQFPSPSWYWDTVTKICVFLFAFVVPILIITVCYGLMLLRLRSVRLLSGSKEKDRSLRRITRMVLVVVGAFVVCWAPIHIFVIVWTLVDIDRRDPLVVAALHLCIALGYANSSLNPVLYAFLDENFKRCFRQLCRKPCGRPDPSSFSRAREATARERVTACTPSDGPGGGAAA
notes: whole, on cells; C-terminally SmBiT-tagged in the NanoBiT assays; also called OPRD; DOP

Assay [1] deals with T1, C-X-C motif chemokine receptor 4 (CXCR4) (UniProt P61073 1-352).
T1 construct: whole, on cells; Stably expressed in U87 cells (U87-CXCR4); C-terminally SmBiT-tagged in the NanoBiT assays
T1 sequence (P61073 whole entry): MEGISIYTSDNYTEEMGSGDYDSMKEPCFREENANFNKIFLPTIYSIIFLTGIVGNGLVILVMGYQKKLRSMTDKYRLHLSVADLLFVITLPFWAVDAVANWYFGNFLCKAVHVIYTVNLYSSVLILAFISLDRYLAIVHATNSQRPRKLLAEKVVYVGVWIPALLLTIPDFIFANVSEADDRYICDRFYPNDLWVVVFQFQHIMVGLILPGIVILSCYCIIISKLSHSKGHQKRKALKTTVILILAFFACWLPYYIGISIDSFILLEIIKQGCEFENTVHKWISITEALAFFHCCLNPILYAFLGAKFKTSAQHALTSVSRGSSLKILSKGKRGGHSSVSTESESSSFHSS
Put plainly: flow cytometry, labelled peptide on U87-CXCR4 cells.

Assay [2] concerns the target kappa-type opioid receptor (KOR) (UniProt P41145 1-380). Briefly: cell-based or functional assay.
Assay [3] addresses B2. Briefly: cell-based or functional assay.
Assay [4] has as its target mu-type opioid receptor (MOR) (UniProt P35372 1-400). Briefly: cell-based or functional assay.
Assay [5] addresses T2, human atypical chemokine receptor 3 (ACKR3) (human, UniProt P25106 1-362). Briefly: cell-based or functional assay.
In assay [6] the target is T2, human atypical chemokine receptor 3 …. Briefly: flow cytometry competition with 5 nM CXCL12-AF647 on U87-ACKR3 cells. The source says: Dead cells were excluded using Zombie Green viability dye (BioLegend). […] Ligand binding was quantified by mean fluorescence intensity on a BD FACS Fortessa cytometer (BD Biosciences).
The target in assay [7] is T3, human β-arrestin-1 N-terminally fused to LgBiT (human, UniProt P49407 1-418).
T3 construct: Co-expressed in U87 cells with SmBiT-tagged receptors; also called LgBiT-beta-arrestin-1; not shown: LgBiT (NanoBiT, Promega)
T3 sequence (P49407 whole entry, the tested form may be a part): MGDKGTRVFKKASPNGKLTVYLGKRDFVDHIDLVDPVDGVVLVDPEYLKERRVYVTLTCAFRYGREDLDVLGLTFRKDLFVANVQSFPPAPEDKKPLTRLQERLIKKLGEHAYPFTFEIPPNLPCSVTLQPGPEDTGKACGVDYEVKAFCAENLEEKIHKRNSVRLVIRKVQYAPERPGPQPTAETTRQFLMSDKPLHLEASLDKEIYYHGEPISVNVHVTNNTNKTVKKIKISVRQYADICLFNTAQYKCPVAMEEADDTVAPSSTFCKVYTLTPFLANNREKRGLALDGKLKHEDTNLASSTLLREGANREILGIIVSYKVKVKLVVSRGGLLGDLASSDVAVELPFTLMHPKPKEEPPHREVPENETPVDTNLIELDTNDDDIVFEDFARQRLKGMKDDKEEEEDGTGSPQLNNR
Put plainly: NanoBiT complementation in U87 cells (receptor-SmBiT, LgBiT-β-arrestin-1), induced by adrenorphin. On the procedure:
48 hours post-transfection cells were harvested, incubated 25 minutes at 37° C. with Nano-Glo Live Cell substrate diluted 200-fold and distributed into white 96-well plates (5×10⁴ cells per well). Ligand-induced, β-arrestin and mG recruitment to GPCRs was evaluated with a Mithras LB940 luminometer (Berthold Technologies) for 20 minutes. For concentration-response curves, the signal recorded with a saturating concentration of full agonist for each receptor was set as 100%.

No end group written: not given here.

T2 sequence (P25106 whole entry): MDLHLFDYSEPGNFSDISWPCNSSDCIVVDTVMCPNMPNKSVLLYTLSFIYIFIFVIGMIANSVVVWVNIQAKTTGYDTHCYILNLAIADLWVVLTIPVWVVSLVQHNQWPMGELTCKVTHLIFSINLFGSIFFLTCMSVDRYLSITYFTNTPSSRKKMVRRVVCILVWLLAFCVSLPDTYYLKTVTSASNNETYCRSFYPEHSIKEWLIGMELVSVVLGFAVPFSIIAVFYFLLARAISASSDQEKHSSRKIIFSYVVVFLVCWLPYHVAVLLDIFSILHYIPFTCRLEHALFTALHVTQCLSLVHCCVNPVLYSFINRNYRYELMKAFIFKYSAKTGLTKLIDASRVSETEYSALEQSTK
Sequence of kappa-type opioid receptor (KOR) (P41145 whole entry): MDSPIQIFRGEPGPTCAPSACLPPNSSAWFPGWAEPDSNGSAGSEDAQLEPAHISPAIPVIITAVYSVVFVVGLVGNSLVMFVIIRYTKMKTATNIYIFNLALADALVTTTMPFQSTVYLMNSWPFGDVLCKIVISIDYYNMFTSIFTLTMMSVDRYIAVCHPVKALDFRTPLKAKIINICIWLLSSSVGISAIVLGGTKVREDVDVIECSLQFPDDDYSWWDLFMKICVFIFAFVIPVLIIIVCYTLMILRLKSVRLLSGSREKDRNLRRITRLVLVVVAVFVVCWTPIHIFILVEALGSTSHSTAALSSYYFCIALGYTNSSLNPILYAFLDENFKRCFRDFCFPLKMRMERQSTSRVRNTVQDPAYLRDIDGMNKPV
Sequence of mu-type opioid receptor (MOR) (P35372 whole entry): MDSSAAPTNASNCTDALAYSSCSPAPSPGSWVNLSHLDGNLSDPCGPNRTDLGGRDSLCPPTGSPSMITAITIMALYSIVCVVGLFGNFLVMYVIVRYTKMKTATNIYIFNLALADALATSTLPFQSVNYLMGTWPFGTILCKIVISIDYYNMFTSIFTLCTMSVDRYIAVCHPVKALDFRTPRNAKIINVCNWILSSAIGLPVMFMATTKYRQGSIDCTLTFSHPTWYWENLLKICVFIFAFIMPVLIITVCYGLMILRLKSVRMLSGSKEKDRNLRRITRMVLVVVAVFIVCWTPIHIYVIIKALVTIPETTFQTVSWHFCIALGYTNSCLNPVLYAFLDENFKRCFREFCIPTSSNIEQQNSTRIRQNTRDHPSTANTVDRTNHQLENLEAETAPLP

As to B1, the binding result in assay [1] was “no binding”. As for FGGFMRRV-NH2 [adrenorphin Y1F variant (SEQ ID NO: 35; NH2-substituted at C-terminus)], the “fold reduction of potency against WT adrenorphin, β-arrestin-1 recruitment” value in assay [2], in assay [3] and in assay [4] was over 100 fold in each case. The “fold change of potency against WT adrenorphin, β-arrestin-1 recruitment” value in assay [5] turned out to be 10 fold. As for H-FGGFMRRK-NH2 [LIH383, octapeptide FGGFMRRK (SEQ ID NO: 3; NH2-substituted at C-terminus)], the “EC50, β-arrestin recruitment (NanoBiT)” value in assay [5] came out at 0.61 nM. As to GGFLRRIRPKLKWDNQ [dynorphin 2-17 (SEQ ID NO: 19)], the binding result in assay [6] is reported as “binds”. GGFLRRIRPKLK-NH2 [dynorphin 2-13 (SEQ ID NO: 20; NH2-substituted at C-terminus)]: the binding result in assay [6] is “binds”.

With B2, the binding result in assay [7] is reported as “binds”.
